Measurements: patent US4757012A, “Ascorbic acid intermediates and process enzymes” (Genentech, Inc., priority 1984, dated 1988)

Key:
[1] = substrate: NC(=O)C1=CN([C@@H]2O[C@H](COP(=O)(O)OP(=O)(O)OC[C@H]3O[C@@H](n4cnc5c(N)ncnc54)[C@H](OP(=O)(O)O)[C@@H]3O)[C@@H](O)[C@H]2O)C=CC1; assay: 2,5-DKG reductase kinetic / substrate specificity assay with purified enzyme; type: biochemical, Corynebacterium sp. ATCC 31090; conditions: other: cofactor NADPH, 150 mM sodium phosphate buffer, pH 6.4, 25° C.
Excerpt: (§1) The following assay conditions were used to determine kinetic parameters: […]

[2] = substrate: O=C(O)C(=O)[C@@H](O)[C@H](O)C(=O)CO; assay: as above; type: biochemical, Corynebacterium sp. ATCC 31090; conditions: other: substrate 2,5-DKG, 150 mM sodium phosphate buffer, pH 6.4, 25° C.
Excerpt: as §1

B1: 2,5-DKG reductase (Corynebacterium sp. ATCC 31090) (protein)
chain: MTVPSIVLNDGNSIPQLGYGVFKVPPADTQRAVEEALEVGYRHIDTAAIYGNEEGVGAAIAASGIARDDLFITTKLWNDRHDGDEPAAAIAESLAKLALDQVDLYLVHWPTPAADNYVHAWEKMIELRAAGLTRSIGVSNHLVPHLERIVAATGVVPAVNQIELHPAYQQREITDWAAAHDVKIESWGPLGQGKYDLFGAEPVTAAAAAHGKTPAQAVLRWHLQKGFVVFPKSVRRERLEENLDVFDFDLTDTEIAAIDAMDPGDGSGRVSAHPDEVD
notes: made in house; host or cells: Corynebacterium sp; ATCC 31090 (natural producer, native enzyme purified from cell paste, not recombinant)
Km [1]: 0.0337 mM
Km [2]: 15.5 mM
